Molecular target: the molecule itself
Assay: Western blotting of the microsomal fraction of transfected cells; self-association
Procedure: The truncated SERCA1 protein could be detected in the microsomal fraction of transiently transfected cells, by western blotting. […] Immunohistochemical analyses of the transfected cells were carried out with the anti-SERCA1-T antibody and made it possible to detect a reticular location in the cells transfected with S1T+4.

B1: S1T+4 truncated SERCA1 protein (other)
chain: MEAAHAKTTEECLAYFGVSETTGLTPDQVKRNLEKYGLNELPAEEGKTLWELVIEQFEDLLVRILLLAACISFVLAWFEEGEETITAFVEPFVILLILIANAIVGVWQERNAENAIEALKEYEPEMGKVYRADRKSVQRIKARDIVPGDIVEVAVGDKVPADIRILAIKSTTLRVDQSILTGESVSVIKHTEPVPDPRAVNQDKKNMLFSGTNIAAGKALGIVATTGVGTEIGKIRDQMAATEQDKTPLQQKLDEFGEQLSKVISLICVAVWLINIGHFNDPVHGGSWFRGAIYYFKIAVALAVAAIPEGLPAVITTCLALGTRRMAKKNAIVRSLPSVETLGCTSVICSDKTGTLTTNQMSVCKMFIIDKVDGDICLLNEFSITGSTYAPEGEVPKVSMRRSARPPRQHSPPWWRR
notes: Splice variant of SERCA1 lacking exon 11, expected size 46 kDa; Expressed in transfected cells or endogenous in cell lines; also called SERCA1-T
B1: binds.

Reference: patent US20040072185A1 (published 2004)
